Results: article PMC6002859

Biological target: Plk1 (UniProt P53350)
Experiment: Myc-PP6R2 IP, Plk1 Western blot
Settings: reference: wild type; sites S771

binding against the reference: lost
Substance: PP6R2 (SAPS2) (from UniProt O75170) S771A (PBD2 mutant)
